A protein production outcome set (Wang et al. 2014)

Test: label from the status in PepcDB records
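Note: failed if final PepcDB status was selected cloned or expressed and not failed if soluble or beyond.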

Sequence	protein production
MTGALVSSEMMARAAAAAGLSDEADRPGPAPLASPSYLALESASILTDGGVFLKVMHPEMRQDFDLGAAMALARQAGEAGIGPRVLWADPAQGAIAMEALTEAGGWRRAMQVDLQEAPVLGAAMSALKALHATPALSSRFDPFAQIDGLIADYSRLGAPLPEDTGWLRRLIGAAEPVLRTGADLAPCRNDGAASNLMLGPGGAVRLVDYDRAGMNDPLYDVGALLAETTDFEREMQAGFAAYAGAFDEVAFARARLWSFVDDMLHALWSRLKARTSARGGVEWLKYGEWRLMRLRMALNHPQYEQKIRLAGGAA	failed
MTGASRARMHQLEREGDRPAKRVNKLLSDQETMIGAVLLGNNLINILASALATQVLTTLIPGPWGVAVATAAMTVLILIFAEVLPKTLAIVRSDDVARALSAPTLFIVRLFGPIIYAIQWIVRRTLRVFGVKLDMAVDVLAAHEEIRGAVDYHHSEGLVETDDRRMLGGVLDLSDMDVSEIMVHRKSMVLLDAGLPARELVDAVLEAQHTRIPLYRDQPDNIVGVLHARDLLKALAECPTGVEGLDIAAILREPWFIPDATNLKDQLNAFLKRKNHFALVVDEYGALQGLVTLEDILEEIVGEIEDEHDTTLDGVRRQGDGSVNVDGHVTVRDLNRAMDWRLPEGEAVTIAGLVIHEAQMIPEPGQTFIFYRHRFQVLRRQRNQITALRISARLDDDSDA	failed
MTGFAPQAGLPSHSVQVADHFDGNSPRGSPMSSGGHPVDRNRGLQPQKEAFSGPAAGKPFHPQALSKYSRHYSPEDELSAEAQPIAAYKIVSQSNKQLLAGSVSVTSLSSRTTELATADPFALAPFPSKAGKQKP	failed
MTGHIDPTKEVFAQFRANDREGPIHMLNLVRLRPRAAYPDGRETTGAEAYAAYGRDSGPVFERLGGKVVWQGQFELMLIGPQDEHWDHVFIAEYPSVAAFVEMIRDPVYREAVKHRQAAVEDSRLIRLKPLKPGKGFGEIPT	not failed
MTGKPLTDYVALGFTALERGDCQEAVNIFRRAQETGPTARSFVGLGLAFHRLGDPPAARWAFAKALDLEPADRDANEWIERIGRPAVPARTSGGRGCRFRAGEDFLQIKENGSWRRFFIKGINLGLGLPGYFPGEYPIHRETYRRWFRLMGELGVNSLRVYAVQSPGFYEALADHNEQGGRLFLFQGIWLELPEDGDFRGRDFLAYAHRQIREAVDSVCGSADFPERPGLPHGSYRRDVSPWTAAYVVGREWESCAVRAFNGRYGRKRGGFAGQFLKVDDGLPFEQWAAEICDYLQSYEHATYDCTHPVTTINWPTLDPLTHPSESTYEEGLIRQGFQVNVDVCNEDEDVETFDPALIASRQGAGFFATYHVYPYYPDFLNNDFLDVENPYREYLKRLRRHHGRQPVVIAEFGVPSSREATHWQRDGWHHGGHDEVSQGKINGYMMEAIRDAGLAGGMLFSWFDEWFKRNWVFLPYELPAERNPFWFNHQDAEQTYGLMAAYPGYPGKVVTLAGRREEWRDASLLQEKRGGAPLHRFGDGRDGARTLVRLSARHDEGFFYLCLETAEPVDFSAAHYLIGLNTCGAKAGETLLPFDTNARSPLGLTFLIHLAGEGASRILVSRFYDKYLNEGLPVRPVPSDTGEWVVMQNITNHRRISKDGTRFYPSRVFSMSGLRFGSLDPQSPRFDSLADWHVSGTLIELRLPWGLLNITDPSSRQVLWMAEQGGKTHTTDGIAAIACSYRPSGEGLAARPTGGRTNLADSLPAGLGSDAVRRYQWERWNHPLYHTYLKRSYYLYRDVLDRMPE	failed
MTGLINAIPATNKDEYKNVGVYIEHRGDELKRPSIEMIGIGKQLARKVNEKLICVVIGDKVDGIAKEVGEYGCDIVLAAESPELAEYRTMPYAEIIGGYIQEYKPNIFLLAATRNGRDLASRIAVKSRTGITADCTVLDIDENRTLLANRPTYGESTLAEILCRNHRPQMATARPGIFPPAEKEKDHKYEVIKKKVDVDKKLLGKQILKFI	not failed
MTGSCLCQGIRYEISGHGLGDIIECHCQRCRKANGTAYATNTPVHVDDFKIVQGEHLLKKYQSTPTTQRCFCSECGSPIMSIKTDTPEYYRLRIGTLDTKIEQKPSMHIFAAHKAEWDTITDDLPQYAERP	failed
MTGVLSGMAKTYLEFSDPNGAEHKFYEVTVDGPELTIRYGRIGTDGQRSTKTFPDAAVAQAEADKKIREKRKKGYEDAVMGARQKRTVVRREVTETRSTTRQIAPVLWRFKTRSAAYGIFVDQNTAWVGNDSGEVFALTLSGEVDRSFRLPDGVKCLVSDQFRTFAGCDDGNVYDLSGKLPFMAYEVESKAALLWLDLHGGTLGVSDSGGGVYAFDAESDQQWGHTDDRASMGWMVRVDARGVYYGHSRGVGMFDRESGFPNWHRPTRGSVLFGWQEGNDLYAGTSANLIQRFTKAGEHVQDYQCDGSVLSCAASPGGEFVFAGDSGSAVYCFNRAGERLWKLGTGCASALSMQFAADKLYIVTTNGTLAAIDVSPAAIEAARQGTTPEVRDVKLAAAMPAQAPATELTVTRNASGGVLLRGVQEGSKVRIRPDDSRFHKDWNVQFPRNLRAADGLYVVDDLEDAGGFYRVVGDLRRLENLEHHHHHH	not failed
MTHIQLDFSKTLEFFGEHELKQQQEIVKSIHKTIHEGTGAGSDFLGWVDLPVDYDKEEFSRIVEASKRIKENSDVLVVIGIGGSYLGARAAIEMLTSSFRNSNEYPEIVFVGNHLSSTYTKELVDYLADKDFSVNVISKSGTTTEPAVAFRLFKQLVEERYGKEEAQKRIFATTDKEKGALKQLATNEGYETFIVPDDVGGRYSVLTAVGLLPIATAGINIEAMMIGAAKAREELSSDKLEENIAYQYATIRNILYAKGYTTEMLINYEPSMQYFNEWWKQLFGESEGKDFKGIYPSSANYTTDLHSLGQYVQEGRRFLFETVVKVNHPKYDITIEKDSDDLDGLNYLAGKTIDEVNTKAFEGTLLAHTDGGVPNMVVNIPQLDEETFGYVVYFFELACAMSGYQLGVNPFNQPGVEAYKQNMFALLGKPGFEDLKKELEERL	failed
MTHNIHDNISQWMKSNEETPIVMSSRIRLARNLENHVHPLMYATENDGFRVINEVQDALPNFELMRLDQMDQQSKMKMVAKHLISPELIKQPAAAVLVNDDESLSVMINEEDHIRIQAMGTDTTLQALYNQASSIDDELDRSLDISYDEQLGYLTTCPTNIGTGMRASVMLHLPGLSIMKRMTRIAQTINRFGYTIRGIYGEGSQVYGHTYQVSNQLTLGKSELEIIETLTEVVNQIIHEEKQIRQKLDTYNQLETQDRVFRSLGILQNCRMITMEEASYRLSEVKLGIDLNYIELQNFKFNELMVAIQSPFLLDEEDDKSVKEKRADILREHIK	failed
MTHSQWQSLPRRGAYVAAINGTLGGGCAGLITASVTVVWLHAWRYWPAVLGVTAVIALLGAWLAVKRHRLTQWQLDQHGLALQRGHLWQSDTRVPISRVQHVDLRRGPIERATGLTTLVVHTAGSRLNAVALSGLDQDDAERLRDRLARQLDHDDDAL	failed
MTHTVIVPGVGGSEQHHWQSWLQRQLSSCSRVEQNDWNLPVLSDWVSHLISHVQQLEQPVQIVAHSFGCLTTLAALEQHPQLINQVKHITLVAPANPERFGEAGFARDSQTDYRAYFHQLKPSIKTQLIISENDPWLDFEEALQLAKSWQVRATNLGKVGHINVASGFGPFPEIFDYMLP	failed
MTHVEDDKEFKEKPLVQVLSDDDSEVKEAKDGGGEEVTGGDGEGEANEEDLGTEYLVRPVGEVEDEDDASDFDPEENGLDEEEGDEEIEEDDVDEDISLSAGKSEPLSKRKRVAKDHSEQGDVTGDNIRPSKR	failed
